The target in the assay is human CD19 (human) (UniProt P15391). In words: cell-based or functional assay.
Sequence of human CD19 (human) (P15391 20-556): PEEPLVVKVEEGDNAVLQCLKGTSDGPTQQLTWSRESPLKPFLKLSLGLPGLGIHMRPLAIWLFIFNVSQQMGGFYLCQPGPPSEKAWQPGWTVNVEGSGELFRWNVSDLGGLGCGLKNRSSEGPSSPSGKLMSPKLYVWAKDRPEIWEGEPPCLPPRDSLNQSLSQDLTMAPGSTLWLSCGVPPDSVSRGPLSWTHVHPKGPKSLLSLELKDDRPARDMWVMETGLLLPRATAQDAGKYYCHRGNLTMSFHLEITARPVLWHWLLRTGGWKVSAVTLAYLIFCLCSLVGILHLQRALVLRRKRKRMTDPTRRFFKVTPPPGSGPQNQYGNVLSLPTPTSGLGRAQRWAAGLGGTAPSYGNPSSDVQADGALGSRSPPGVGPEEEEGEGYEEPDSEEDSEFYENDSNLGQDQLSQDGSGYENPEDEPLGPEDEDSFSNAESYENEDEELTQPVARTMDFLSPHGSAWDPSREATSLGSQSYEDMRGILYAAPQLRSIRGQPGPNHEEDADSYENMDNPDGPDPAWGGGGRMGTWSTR

As to CD8SP-CD19BU12(vL-vH)-MYC-BBz-PAC, the NFAT-GFP (%) after overnight co-culture with RAJI cells was found to be 30.2%.

Source of the values: patent US20260167693A1.
